From patent publication US20170240613A1 (REGENTS OF THE UNIVERSITY OF COLORADO A BODY CORPORATE, published 2017) come the findings set out here.

In assay [1] the target is T1, human CD112R (form used in Example 18 not stated) (human), Q6DKI7.
T1 chain: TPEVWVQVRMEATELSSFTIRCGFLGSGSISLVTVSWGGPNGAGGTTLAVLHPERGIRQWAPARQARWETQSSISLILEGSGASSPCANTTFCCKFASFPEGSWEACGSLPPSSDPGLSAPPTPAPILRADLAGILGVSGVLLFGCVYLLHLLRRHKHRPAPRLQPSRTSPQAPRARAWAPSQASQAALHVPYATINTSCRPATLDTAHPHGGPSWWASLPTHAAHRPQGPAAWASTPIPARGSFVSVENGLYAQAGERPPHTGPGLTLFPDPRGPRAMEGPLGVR
Put plainly: flow cytometry, CD112-Fc staining of human CD112R; panel '+2H6'.

Assay [2] addresses T1, human CD112R (form used in Example 18 …). Put plainly: flow cytometry, CD112-Fc staining of human CD112R; panel '+4-5'. For orientation: In flow cytometry, cells or beads pass a laser one at a time.
For assay [3] the target is unchanged. As to the kind of experiment: flow cytometry, CD112-Fc staining of human CD112R; panel 'None'.
Assay [4] has the same target. As to the kind of experiment: flow cytometry, CD112-Fc staining of human CD112R; panel '+4-4'.
Assay [5] concerns the target T2, human CD112-Fc fusion protein (human; mouse, UniProt Q92692 32-360).
T2 construct: extracellular domain; Used soluble for cell staining, coated on beads, coated on plates and amine-coupled to a CM5 chip; the Biacore text only says CD112; also called CD112-Ig; CD112 fusion protein; not shown: constant region (Fc) of mouse IgG2a
T2 sequence (looked up): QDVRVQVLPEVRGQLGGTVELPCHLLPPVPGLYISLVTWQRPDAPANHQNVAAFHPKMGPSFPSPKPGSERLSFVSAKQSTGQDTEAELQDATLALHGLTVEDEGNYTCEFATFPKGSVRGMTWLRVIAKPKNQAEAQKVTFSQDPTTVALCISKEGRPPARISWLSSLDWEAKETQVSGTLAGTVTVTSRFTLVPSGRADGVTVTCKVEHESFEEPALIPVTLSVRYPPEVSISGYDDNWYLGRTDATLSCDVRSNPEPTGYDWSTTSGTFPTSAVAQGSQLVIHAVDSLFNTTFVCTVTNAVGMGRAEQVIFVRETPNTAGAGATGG
As to the kind of experiment: competition on coated CD112 (beads, flow cytometry): staining by CD112R protein in the presence of rising CD226 protein. From the text:
FIG. 3F depicts graphs showing the competitive binding assay for CD112 among CD112R, CD226, and TIGIT. Coated CD112 was stained by CD112R protein in the presence of different concentration of TIGIT or CD226 protein; on the other hand, coated CD112 were stained by CD226 protein, in the presence of different concentration of CD112R protein.
CD112 is known to interact with both CD226 and TIGIT, though the latter interaction is relatively weak (Bottino et al., 2003; Stanietsky et al., 2009; Yu et al., 2009). It was investigated whether these two counter receptors compete with CD112R for CD112 interaction. CD112 protein was coated on beads, and stained with CD112R protein in the presence of different concentration of TIGIT or CD226 protein. Inclusion of TIGIT had little effect on disrupting this interaction, while CD226 was a good inhibitor of the CD112-CD112R binding (FIG. 3F). […] Because of the weak interaction between CD112 and TIGIT, as well as limited coated CD112 protein on beads, binding between these two molecules by flow cytometry was not observed. […] This conclusion was further supported by the studies that a CD112 mAb, clone TX31, blocked the binding of CD112 to both CD112R and CD226 (FIG. 4B and FIG. 8).

In assay [6] the target is T3, mouse CD112 on RMA-S cells (RMA-S/mCD112) (mouse, UniProt P32507 32-530).
T3 construct: whole, on cells; also called mCD112 transfectants; RMA-S/mCD112 cells
T3 sequence (looked up): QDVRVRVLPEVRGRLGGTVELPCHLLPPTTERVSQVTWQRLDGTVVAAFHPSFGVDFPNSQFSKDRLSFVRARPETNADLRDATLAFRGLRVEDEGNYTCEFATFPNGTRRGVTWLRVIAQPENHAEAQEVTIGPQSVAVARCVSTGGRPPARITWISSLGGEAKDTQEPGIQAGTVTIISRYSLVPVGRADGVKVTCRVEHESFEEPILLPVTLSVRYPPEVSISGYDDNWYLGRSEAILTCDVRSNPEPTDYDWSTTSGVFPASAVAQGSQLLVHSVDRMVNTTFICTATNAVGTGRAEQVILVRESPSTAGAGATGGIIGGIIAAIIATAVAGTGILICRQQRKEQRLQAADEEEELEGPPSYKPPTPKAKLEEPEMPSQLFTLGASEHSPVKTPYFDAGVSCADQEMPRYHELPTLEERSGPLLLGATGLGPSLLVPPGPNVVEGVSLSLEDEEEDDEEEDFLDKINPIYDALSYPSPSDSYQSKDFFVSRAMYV
As to the kind of experiment: flow cytometry, RMA-S/mCD112 cells against control RMA-S cells. From the text:
FIG. 3E depicts graphs showing that the CD112R/CD112 interaction was conserved in mice. RMA-S/mCD112 cells (blue), a mouse lymphoma cell line stably expressing mCD112, or control RMA-S cells (red) were stained with mouse CD112R-Fc, mouse CD226-Fc or mouse TIGIT-Fc respectively.

Assay [7] addresses T2, human CD112-Fc fusion protein. Put plainly: Biacore 3000, concentration series of CD112R protein over immobilized CD112. From the text: (§1) FIG. 3D depicts a graph showing BIAcore3000 analysis of CD112R binding to CD112. A series of concentrations of CD112R protein was used to measure the binding kinetics with immobilized CD112.
(§2) All bio sensor experiments were run on a Biacore 3000 instrument (GE Healthcare, Piscataway, N.J., USA). PBS with 0.005% P20 buffer (Gibco) was used as the running buffer for both the immobilization and kinetics experiments. Amine-coupling chemistry was used to immobilize protein FLAG, CD112 and CD155 to a CM5 sensor chip surface at […]. Kinetic experiments were carried out for three different ligands using three different concentration series: 4, 12, 36, 111, 333 nM of CD112R; 9000, 3000, 1000, 333, 111 nM TGIT; 9000, 3000, 1000, 333, 111 nM PVR L3. All samples were diluted in PBS buffer and were injected for 3 minutes across the surface at a flowrate of 20 flL/min and the dissociation of analyte from the surface-bound ligands was monitored for 5 minutes. All analyte concentrations were performed in duplicate and an unmodified reference flow cell was used to correct for instrument drift and/or noise. Buffer blanks were used to double-reference the obtained kinetic data. Raw sensogram data was processed and fit using the Scrubber software package (Version 2.0b, BioLogic Software, Campbell, Australia; http_www_biologic_com_au).

Assay [8] shares this target. Put plainly: SPR, Biacore 3000, CD112 amine-coupled to CM5 chip, CD112R as analyte at 4-333 nM.
Excerpt: as §1, §2

B1: human CD112-Fc fusion protein, Q92692 32-360 (Fc fusion, UniProt Q92692 32-360, looked up, not shown: a dimerising Fc or GST)
chain: QDVRVQVLPEVRGQLGGTVELPCHLLPPVPGLYISLVTWQRPDAPANHQNVAAFHPKMGPSFPSPKPGSERLSFVSAKQSTGQDTEAELQDATLALHGLTVEDEGNYTCEFATFPKGSVRGMTWLRVIAKPKNQAEAQKVTFSQDPTTVALCISKEGRPPARISWLSSLDWEAKETQVSGTLAGTVTVTSRFTLVPSGRADGVTVTCKVEHESFEEPALIPVTLSVRYPPEVSISGYDDNWYLGRTDATLSCDVRSNPEPTGYDWSTTSGTFPTSAVAQGSQLVIHAVDSLFNTTFVCTVTNAVGMGRAEQVIFVRETPNTAGAGATGG
For B1, the 1 subset (share of events in the gate drawn over the histogram) amounted to 4.26 in assay [1], 12.8 in assay [2], 11.2 in assay [3] and 13.8 in assay [4].

B2: human CD226-Fc fusion protein (Fc fusion, UniProt Q15762 19-254, looked up)
chain: EEVLWHTSVPFAENMSLECVYPSMGILTQVEWFKIGTQQDSIAIFSPTHGMVIRKPYAERVYFLNSTMASNNMTLFFRNASEDDVGYYSCSLYTYPQGTWQKVIQVVQSDSFEAAVPSNSHIVSEPGKNVTLTCQPQMTWPVQAVRWEKIQPRQIDLLTYCNLVHGRNFTSKFPRQIVSNCSHGRWSVIVIPDVTVSDSGLYRCYLQASAGENETFVMRLTVAEGKTDNQYTLFVA
notes: extracellular domain; also called CD226 protein; not shown: constant region (Fc) of mouse IgG2a
As for B2, the binding result in assay [5] is “binds”.

B3: mouse TIGIT-Fc fusion protein (Fc fusion, UniProt P86176 29-148, looked up)
chain: TIDTKRNISAEEGGSVILQCHFSSDTAEVTQVDWKQQDQLLAIYSVDLGWHVASVFSDRVVPGPSLGLTFQSLTMNDTGEYFCTYHTYPGGIYKGRIFLKVQESSDDRNGLAQFQTAPLG
notes: extracellular domain; also called TIGIT protein; not shown: Fc
With B3, in assay [6], the binding result is given as “no binding”.

B4: human CD112R-mFc protein (extracellular domain of human CD112R fused to mouse IgG2a constant region) (Fc fusion)
chain: TPEVWVQVRMEATELSSFTIRCGFLGSGSISLVTVSWGGPNGAGGTTLAVLHPERGIRQWAPARQARWETQSSISLILEGSGASSPCANTTFCCKFASFPEGSWEACGSLPPSSDPGLSARSPRGPTIKPCPPCKCPAPNLLGGPSVFIFPPKIKDVLMISLSPIVTCVVVDVSEDDPDVQISWFVNNVEVHTAQTQTHREDYNSTLRVVSALPIQHQDWMSGKEFKCKVNNKDLPAPIERTISKPKGSVRAPQVYVLPPPEEEMTKKQVTLTCMVTDFMPEDIYVEWTNNGKTELNYKNTEPVLDSDGSYFMYSKLRVEKKNWVERNSYSCSVVHEGLHNHHTTKSFSRTPGK
notes: also called CD112R fusion protein; CD112R protein
As for B4, the Kd in assay [7] stood at 88.4 nM; in assay [8], 88 nM.

A word on the Kd: it is a measure of binding affinity in units of concentration. Higher therefore signals a looser complex.
